Substrate in this data set: N[C@@H](CSSC[C@H](N)C(=O)O)C(=O)O
Description: purified protein. Type of data set: biochemical, Homo sapiens. Conditions: 100 µM AdoMet, 50 µM PLP, 100 mM HEPES pH 7.4, 37 °C.

B1: human CBS (cystathionine beta-synthase) (Homo sapiens) (protein)
chain: MPSETPQAEVGPTGCPHRSGPHSAKGSLEKGSPEDKEAKEPLWIRPDAPSRCTWQLGRPASESPHHHTAPAKSPKILPDILKKIGDTPMVRINKIGKKFGLKCELLAKCEFFNAGGSVKDRISLRMIEDAERDGTLKPGDTIIEPTSGNTGIGLALAAAVRGYRCIIVMPEKMSSEKVDVLRALGAEIVRTPTNARFDSPESHVGVAWRLKNEIPNSHILDQYRNASNPLAHYDTTADEILQQCDGKLDMLVASVGTGGTITGIARKLKEKCPGCRIIGVDPEGSILAEPEELNQTEQTTYEVEGIGYDFIPTVLDRTVVDKWFKSNDEEAFTFARMLIAQEGLLCGGSAGSTVAVAVKAAQELQEGQRCVVILPDSVRNYMTKFLSDRWMLQKGFLKEEDLTEKKPWWWHLRVQELGLSAPLTVLPTITCGHTIEILREKGFDQAPVVDEAGVILGMVTLGNMLSSLLAGKVQPSDQVGKVIYKQFKQIRLTDTLGRLSHILEMDHFALVVHEQIQYHSTGKSSQRQMVFGVVTAIDLLNFVAAQERDQK
One may read the Km as the concentration of substrate that gives half-maximal velocity. By Vmax is commonly meant the top rate of the reaction or transport when substrate is in excess. Broadly, the kcat is the maximal rate divided by the concentration of active sites. In general, kcat/Km refers to the turnover number divided by the Michaelis constant. Consider B1, for which the Km worked out at 1300 ± 100 µM, the maximal velocity (Vmax) is 0.102 µmol/min/mg, the kcat was determined as 0.11 s⁻¹ and the kcat/Km turned out to be 85 M⁻¹ s⁻¹.

Source of the values: PMC4795164.
